For 19 sequences, Kd and IC50 results are on record in the Immune Epitope Database (IEDB).

One may read the pKd as the negative decadic logarithm of the Kd, by convention in mol/L. What is called pIC50 is the negative decadic logarithm of the IC50, by convention in mol/L. Low readings indicate a high IC50, high ones a low IC50.

Test [1] concerns the target HLA-B*15:01. Nature of the test: IEDB peptide-MHC binding, purified MHC/competitive/fluorescence; filed as Kd, often an IC50 or EC50 that approximates it; ≥ and ≤ were set here for values at or beyond the usual limits of such assays.
Test [2] has as its target HLA-B*35:01. The test is described as above.
Test [3] addresses HLA-B*51:01. The test is described as above.
In test [4] the target is HLA-B*07:02. The test is described as above.
For test [5], the target named is HLA-A*03:01. Nature of the test: IEDB peptide-MHC binding, purified MHC/competitive/fluorescence; ≥ and ≤ were set here for values at or beyond the usual limits of such assays.
The target in test [6] is HLA-A*24:02. The test is described as above. Particulars: source organism: Zaire ebolavirus.
The target of test [7] is HLA-A*02:01. Described as above. The following applies: source organism: Zaire ebolavirus.
The target in test [8] is HLA-B*07:02. As to the kind of experiment: IEDB peptide-MHC binding, purified MHC/direct/fluorescence; filed as Kd, often an IC50 or EC50 that approximates it; ≥ and ≤ were set here for values at or beyond the usual limits of such assays.
The target in test [9] is HLA-A*01:01. Described as above.
For test [10], the target named is HLA-A*02:01. The test is described as above.
For test [11], the target named is HLA-A*03:01. The test is described as above.
In test [12] the target is HLA-A*24:02. The description is as above.
The target in test [13] is HLA-A*26:01. Described as above.
The target in test [14] is HLA-A*31:01. Described as above.
Test [15] has as its target HLA-A*69:01. The test is described as above.
Test [16] deals with HLA-B*08:01. The description is as above.
Test [17] concerns the target HLA-B*15:01. The test is described as above.
In test [18] the target is HLA-B*27:05. Described as above.
The target in test [19] is HLA-B*40:01. The description is as above.
For test [20], the target named is HLA-B*44:02. The test is described as above.
Test [21] concerns the target HLA-B*46:01. The description is as above.
Test [22] concerns the target HLA-B*58:01. The test is described as above.
Test [23] concerns the target HLA-A*11:01. The test is described as above.
Test [24] concerns the target HLA-A*11:01. Nature of the test: IEDB peptide-MHC binding, purified MHC/competitive/fluorescence; ≥ and ≤ were set here for values at or beyond the usual limits of such assays.
In test [25] the target is HLA-B*07:02. The test is described as above. Particulars: source organism: Zaire ebolavirus.
Test [26] deals with HLA-B*08:01. Described as above. The following applies: source organism: Zaire ebolavirus.
The target of test [27] is HLA-B*15:01. Described as above. Particulars: source organism: Zaire ebolavirus.
Test [28] concerns the target HLA-B*48:01. Nature of the test: IEDB peptide-MHC binding, purified MHC/direct/fluorescence; filed as Kd, often an IC50 or EC50 that approximates it; ≥ and ≤ were set here for values at or beyond the usual limits of such assays. The following applies: source organism: Mammarenavirus lassaense.
The target in test [29] is HLA-B*57:01. The test is described as above. Particulars: source organism: Mammarenavirus lassaense.
Test [30] has as its target HLA-B*07:02. Nature of the test: IEDB peptide-MHC binding, purified MHC/competitive/radioactivity; filed as Kd, often an IC50 or EC50 that approximates it; ≥ and ≤ were set here for values at or beyond the usual limits of such assays. Particulars: source organism: Lassa virus GA391.
Test [31] addresses HLA-B*53:01. The test is described as above. Particulars: source organism: Lassa virus GA391.
Test [32] addresses HLA-B*54:01. Described as above. The following applies: source organism: Lassa virus GA391.
The mark [33] stands for this setting: source organism: Escherichia coli O157:H7 str. Sakai.
The mark [34] stands for this setting: source organism: Zaire ebolavirus.
[35] abbreviates: source organism: Encephalitozoon cuniculi GB-M1.
Where [36] appears, read: source organism: Mycobacterium tuberculosis H37Rv.
Setting [37] is: source organism: Influenza A virus (A/Hong Kong/507/97(H5N1)).
The mark [38] stands for this setting: source organism: Influenza A virus (A/Puerto Rico/8/34/Mount Sinai(H1N1)).
[39] abbreviates: source organism: Influenza A virus (A/SW/KS/13481-T/00(H1N2)).
The mark [40] stands for this setting: source organism: Influenza A virus (A/swine/Bakum/5/95(H1N1)).
[41] abbreviates: source organism: Shigella flexneri 5 str. 8401.
[42] abbreviates: source organism: Bacillus cereus G9241.
Setting [43] is: source organism: Sudan ebolavirus.
[44] abbreviates: source organism: Mammarenavirus lassaense.

pIC50, pKd: −log10 of the molar value.

Turning to TPTHLSLAI, the pKd in [1] (setting [33]) is at most 4.70; in test [2] (setting [33]), 7.77; in test [3] (setting [33]) it was 5.53.

In turn, LPFSASIVF gave a pKd in test [4] (source organism: Yersinia pestis CO92) of 7.05.

As to KYLEGHGFR, the pIC50 is at most 3.71 in [5] (setting [34]) and 5.11 in test [6].

ILRQNMIAL: the pKd in [4] (setting [35]) was 6.70; in [1] (setting [35]), 6.73; in [2] (setting [35]), 5.50; in test [3] (setting [35]) it was at most 4.70.

Turning to RLLNLSGVN, the pIC50 was 4.66 in test [7] and 4.36 in [5] (setting [34]).

Take APGWLIWTY: in test [4] (source organism: human gammaherpesvirus 4), the pKd was at most 4.70.

As to LPAGSPVAV, the pKd was 6.62 in test [8] (source organism: Mycobacterium tuberculosis variant bovis), 8.57 in [2] (setting [36]) and 6.34 in [3] (setting [36]).

Regarding KSCLPACVY, the negative-log Kd (pKd) in test [9] (setting [37]), in test [10] (setting [37]), in [11] (setting [37]), in [12] (setting [37]), in [13] (source organism: Influenza A virus(A/swine/Henan/8/2004(H9N2))) and in test [14] (setting [37]) was at most 4.70 in each case. In addition, the pKd is at most 4.70 in test [15] (setting [37]); at most 4.70 in test [8] (setting [37]); at most 4.70 in test [16] (setting [37]); 6.32 in test [17] (setting [38]); at most 4.70 in test [18] (setting [37]); at most 4.70 in test [19] (setting [37]). In addition, the values for the pKd in test [20] (setting [37]), in [21] (setting [37]) and in test [22] (setting [37]) were at most 4.70, at most 4.70 and 6.68, respectively.

On to YVKQNTLKL, for which the pKd in [4] (source organism: Influenza A virus) was 7.14.

For the sequence HEKGINPNY, the pKd in test [9] (setting [39]), in [10] (setting [39]), in test [11] (setting [39]), in [23] (setting [39]), in [12] (setting [39]) and in test [13] (setting [39]) was at most 4.70 throughout. Moreover, the pKd is at most 4.70 in test [14] (setting [39]); at most 4.70 in test [15] (setting [39]); at most 4.70 in [8] (setting [39]); at most 4.70 in test [16] (setting [39]); 6.27 in test [17] (setting [38]); at most 4.70 in test [18] (setting [39]). For the same sequence, the pKd in test [19] (setting [39]), in [21] (setting [39]) and in test [22] (setting [39]) was at most 4.70 throughout.

Regarding ILFQRTFSI, the pIC50 in test [7] is 6.51; in test [5] (setting [34]) it was 5.61; in test [24] (setting [34]), 4.37; in [25], at most 4.14; in [26], 5.90; in test [27], at most 3.43.

In test [12] (source organism: Mycobacterium tuberculosis str. Haarlem), IMPRDSWLI had a pKd of at least 9.00.

For the sequence AITAASLPK, the pIC50 in [7] was at most 3.55; in test [5] (setting [34]), 5.16; in test [24] (setting [34]) it was 6.43; in test [27], at most 3.74.

Take RGINDRNFW: the pKd in [9] (setting [40]), in [10] (setting [40]), in [11] (setting [40]), in [23] (setting [40]), in test [12] (setting [40]) and in test [14] (setting [40]) was at most 4.70 throughout. Also, the pKd in [15] (setting [40]), in test [8] (setting [40]), in test [16] (setting [40]), in test [17] (setting [40]), in test [18] (setting [40]) and in [19] (setting [40]) was at most 4.70 in each case. The pKd in test [21] (setting [40]) was at most 4.70; in [22] (source organism: Influenza A virus (A/swine/Bakum/1832/2000(H1N2))), 7.38.

On to TPAQLSMLL, for which the results for the pKd in test [4] (setting [41]) and in test [3] (setting [41]) were 6.67 and at most 4.70, respectively.

As for LFAGSIAAY, the pKd in test [1] (setting [42]) is 6.72; in test [2] (setting [42]), 7.28.

Turning to HLASTDQLK, the pIC50 in test [5] (setting [43]) was 4.57; in test [24] (setting [43]), 4.86.

Consider MMVIFRLMR, for which the pIC50 is at most 2.26 in test [7], 6.74 in test [5] (setting [34]) and 7.34 in [24] (setting [34]).

As for VPHVIEEVM, the pKd in test [9] (setting [44]), in [10] (setting [44]), in test [11] (setting [44]), in test [23] (setting [44]), in [14] (setting [44]) and in test [15] (setting [44]) was at most 4.70 in each case. Moreover, the pKd is 5.42 in test [16] (setting [44]); at most 4.70 in test [17] (setting [44]); at most 4.70 in test [18] (setting [44]); at most 4.70 in [19] (setting [44]); at most 4.70 in test [20] (setting [44]); at most 4.70 in test [21] (setting [44]). The pKd in test [28] was at most 4.70; in test [29], at most 4.70; in test [22] (setting [44]) it was at most 4.70; in test [2] (setting [44]) it was 9.70; in [3] (setting [44]) it was at most 4.70; in test [30], 6.49. For the same sequence, the results for the negative logarithm of the Kd (pKd) in [31] and in [32] were 5.96 and 4.90, respectively.
